# From paper PMC12102759
# B1: NEK9 peptide 736-751 (Serine/threonine-protein kinase Nek9), 16-mer library wild type / NSP9 (ORF1ab Nsp9, residues 4141-4253) (parent)
# chain 1: NSSGLSIGTVFQSSSP
# chain 2: NNELSPVALRQMSCAAGTTQTACTDDNALAYYNTTKGGRFVLALLSDLQDLKWARFPKSDGTGTIYTELEPPCRFVTDTPKGPKVKYLYFIKGLNNLNRGMVLGSLAATVRLQ
# B2: NOTCH4 peptide 1606-1621 (Neurogenic locus notch homolog protein 4), 16-mer library wild type / NSP9 (ORF1ab Nsp9, residues 4141-4253) (parent)
# chain 1: QGAWLGAPEPWEPLLD
# chain 2: B1 chain 2
# Variants of: B1
# Settings: with NSP9 (ORF1ab Nsp9, residues 4141-4253); bait immobilised on MaxiSorp plates (10 µg), library pre-cleared on GST, 2 h binding at 4 °C, five washes; one round per day, days 1-4; value from days 2 and 3; keep out of graded; scale: average fractional NGS count over selection days 2 and 3
row,Variant,screen value
1,chain 1 S6Q,0
2,chain 1 S6V,0
3,chain 1 S6F,0
4,chain 1 S6Y,0
5,chain 1 G8Y,0
6,chain 1 G8D,0.000107
7,chain 1 G8T,0
8,chain 1 T9H,1.62e-05
9,chain 1 T9P,6.33e-05
10,chain 1 T9Y,2.09e-05
11,chain 1 T9N,0.000187
12,chain 1 T9L,0
13,chain 1 T9S,0
14,chain 1 T9D,0.00026
15,chain 1 T9E,0.00124
16,chain 1 T9G,0
17,chain 1 I7S,0
18,chain 1 I7G,0
19,chain 1 I7L,9.86e-05
20,chain 1 Q12P,0
21,chain 1 Q12N,0.000424
22,chain 1 Q12A,1.81e-05
23,chain 1 Q12V,0
24,chain 1 Q12Y,1.21e-05
25,chain 1 Q12S,4.58e-05
26,chain 1 Q12D,3.3e-05

row,Variant,screen value
1,chain 1 Q12I,0
2,chain 1 Q12M,1.76e-05
3,chain 1 Q12E,0.00594
4,chain 1 G4W,0
5,chain 1 G4Y,0
6,chain 1 G4I,0
7,chain 1 V10D,0.000207
8,chain 1 V10F,0
9,chain 1 V10T,0
10,chain 1 V10S,5.93e-05
11,chain 1 S14D,7.14e-05
12,chain 1 S14I,0.0016
13,chain 1 S14E,0
14,chain 1 S14N,3.83e-05
15,chain 1 S14T,0
16,chain 1 S14F,0.000194
17,chain 1 L5K,0
18,chain 1 L5Q,0
19,chain 1 L5V,4.92e-05
20,chain 1 L5R,0
21,chain 1 F11G,0.000245
22,chain 1 F11I,0.000239
23,chain 1 F11M,0.000187
24,chain 1 F11R,0
25,chain 1 F11E,0.000183
26,chain 1 F11P,0.0001

# Variants of: B2
# Settings: with NSP9 (ORF1ab Nsp9, residues 4141-4253); bait immobilised on MaxiSorp plates (10 µg), library pre-cleared on GST, 2 h binding at 4 °C, five washes; one round per day, days 1-4; value from days 2 and 3; keep out of graded; scale: average fractional NGS count over selection days 2 and 3
row,Variant,screen value
1,chain 1 L5V,3.16e-05
2,chain 1 L5M,0
3,chain 1 L5H,0
4,chain 1 L5K,0
5,chain 1 L5P,3.64e-05
6,chain 1 L5Y,0
7,chain 1 L14E,4.45e-05
8,chain 1 L14N,1.14e-05
9,chain 1 L14D,2.68e-05
10,chain 1 W4F,7.26e-05
11,chain 1 W4I,0
12,chain 1 W4H,0
13,chain 1 W4M,0
14,chain 1 W4T,0
15,chain 1 W4Q,0
16,chain 1 G6R,0

row,Variant,screen value
1,chain 1 G6E,6.33e-05
2,chain 1 G6S,0
3,chain 1 G6N,0
4,chain 1 G6H,0
5,chain 1 G6W,0
6,chain 1 G6Q,0
7,chain 1 G6F,0
8,chain 1 G6L,0
9,chain 1 G6Y,0
10,chain 1 A3H,3.7e-05
11,chain 1 A3G,0
12,chain 1 A3E,2.97e-05
13,chain 1 E9R,5.73e-05
14,chain 1 E9H,4.98e-05
15,chain 1 Q1S,7.35e-05
